Measured values as given in article doi:10.1101/2025.09.04.674340.

B1: Ab1999 Fab (Fab, V domains shown)
VH: QVQLQESGPGLVKPSETLSLTCAVSGGSISDDYSWSWIRQPPGKGLEWIGYIYGSGGGTNYNPSLKNRVTISIDTSKNQFSLKLSSVTAADTAVYYCARIFAFITVFGVVTPEDNWFDVWGPGVLVTVSS
VL: DIQMTQSPSSLSASVGDRVTITCRASQSINNYLHWYQQRAGEAPKLLIYAASALQTGVPSRFSGSGSGTDFTLTISSLQPEDVATYYCQHSYGTPYSFGQGTKVEIK
B2: Ab1983 Fab (Fab, V domains shown)
VH: QLQLQESGPGLVKPSETLSLTCAVSGGSISSDYYYWSWIRQPPGKGLEWIGGIYSISESTNYNPSLKSRVTISKDTSKNQFSLKLSSVTAADTAVYFCARKDPYSSGWTPDYWGQGVLVTVSS
VL: QSVLTQPSSASASLGASVTLTCTLSSGYSNYAVDWHQQRPGKGPQFVMRVGTGGIVGSKGDGIPDRFSGSGSGLNRYLTIKNIQEEDESDYHCGADHGTGSSFVWVFGGGTRLTVL

Experiments:
[1] = molecular target: RC1 Env SOSIP trimer (HIV-1 strain BG505); experiment: cryo-EM structure
[2] = molecular target: WIN332 Env SOSIP trimer (HIV-1 strain BG505); experiment: cryo-EM structure

| Binder | stoichiometry N (Fab per Env trimer) [1] | stoichiometry N (Fab per Env trimer) [2] |
| --- | --- | --- |
| B1 | 1 |  |
| B2 |  | 2 |
